Assay results: paper PMC9388150 (Proceedings of the National Academy of Sciences of the …, 2022)

Experiments:
[1] = molecular target: full-length TtKin5 kinesin-2 (T. thermophila) (UniProt Q7YUC7)
[2] = molecular target: CeOSM-3^G444E (C. elegans) (UniProt P46873)
[3] = molecular target: the molecule itself; test: SEC-MALS

Sequence of CeOSM-3^G444E (C. elegans) (P46873 whole entry G444E): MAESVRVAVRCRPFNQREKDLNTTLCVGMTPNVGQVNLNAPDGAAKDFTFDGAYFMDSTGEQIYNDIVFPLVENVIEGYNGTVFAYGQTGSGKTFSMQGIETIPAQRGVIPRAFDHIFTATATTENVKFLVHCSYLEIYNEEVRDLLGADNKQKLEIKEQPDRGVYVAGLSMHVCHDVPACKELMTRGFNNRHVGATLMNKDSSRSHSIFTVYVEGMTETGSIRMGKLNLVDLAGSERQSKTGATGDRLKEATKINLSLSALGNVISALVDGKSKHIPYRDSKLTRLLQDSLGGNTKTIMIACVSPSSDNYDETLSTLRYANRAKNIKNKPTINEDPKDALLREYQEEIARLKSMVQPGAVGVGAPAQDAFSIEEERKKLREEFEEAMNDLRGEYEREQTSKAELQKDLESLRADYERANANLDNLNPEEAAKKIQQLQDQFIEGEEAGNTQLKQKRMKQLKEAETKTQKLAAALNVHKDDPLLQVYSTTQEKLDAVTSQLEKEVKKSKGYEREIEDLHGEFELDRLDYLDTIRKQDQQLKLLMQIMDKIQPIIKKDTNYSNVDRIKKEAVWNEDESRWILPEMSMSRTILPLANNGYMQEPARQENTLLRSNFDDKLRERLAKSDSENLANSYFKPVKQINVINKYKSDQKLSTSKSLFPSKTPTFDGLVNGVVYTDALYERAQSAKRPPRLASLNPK

TtIFT70 (natural protein) showed a velocity of TtKin5 with TtIFT70 in single-molecule transport assays [1] of 1.5 µm/s.

“CeIFT70/52 adaptor complex (from UniProt Q8I7G4 1-656)” gave a velocity of CeOSM-3^G444E with CeIFT70/52 in single-molecule transport assays [2] of 1.7 µm/s.

TtIFT70/52 adaptor complex showed a velocity of TtKin5 with TtIFT70/52 in single-molecule transport assays [1] of 2 µm/s.

B1: full-length TtKin5 kinesin-2 (natural protein, T. thermophila, UniProt Q7YUC7 1-836, looked up)
chain: MSSETVKVMVRARPMNKLEISKGCANIVQVDPQTNQIILSNGKDAEAAKVFTYDYVFPPDIQQQTVYENSAFPLVESVVEGYNGTIFAYGQTGCGKTHSMLGKPNDEVEKGIIPRTFSHIINIVESANDKNFLVRCSYIEIYNEEIHDLLGKDAKARMDLKEYPDKGVFVKDLTMNVVKTVAEMEKWMNIGTENRSVGATAMNKDSSRSHSIFTLYIECSYKVEGDTEDHITAGKLNLVDLAGSERQSKTQATGDRLKEATKINLSLSALGNVISALVDGKSQHVPYRDSKLTRLLQDSLGGNTKTIMIAAISPADYNYEETLSTLRYASRAKNIKNQPKVNQDPKDALLKEYADEIKKLKEMLLKQQAGEQVNFNAVVNGNGQQQPQLAIQHSSSHVMNSSEVKKLKEKNDALNAERQQIEEEVKNKEKLFQQQMQEKLMIEQKLKEVEQKFIVGGTADQDKKKKISQMRNKLKKQMQEHEKIQEELKQKDEEFENLEIKYSSLQEELDATKKKVKKLNQKYKQAQSEIKDLEKEHEIQKEDLLDTIRYQQREVKILMSICQMLLTPDEIEIIKGQGEWQDDYQVYKLPPFYFKQKKLNFPKLPAAQAMDMIDQEKQSREIDFMRQNNNFDNRQNNNHQNGNSHSHSNSIKRIPSGTMDNFEDMNKFQFGNGPAKSNNTSRYNNGFQNGSDEFDLSKYDAGGGNSLHSIQESLKEKNNSPNIRIKKAHKVQQQPEKQRIPNVSLDPIESQRISQQKLMGLQDSHFLEPSFQGGEQRRSKNIQLQPIQARPLSNSQTVMNLNQLNKNNINMNSIDFDQIANKTPNRVKLDKIQVPR
In the case of B1, the “stoichiometry N” value [3] is reported as 2.
